Measurements: publication PMC5270629 (Thrombosis research, 2015)

Target: T1, human fibrinogen (human, UniProt P02671-2 20-644; P02675 31-491; P02679-2 27-437)
T1 sequence (looked up) 1: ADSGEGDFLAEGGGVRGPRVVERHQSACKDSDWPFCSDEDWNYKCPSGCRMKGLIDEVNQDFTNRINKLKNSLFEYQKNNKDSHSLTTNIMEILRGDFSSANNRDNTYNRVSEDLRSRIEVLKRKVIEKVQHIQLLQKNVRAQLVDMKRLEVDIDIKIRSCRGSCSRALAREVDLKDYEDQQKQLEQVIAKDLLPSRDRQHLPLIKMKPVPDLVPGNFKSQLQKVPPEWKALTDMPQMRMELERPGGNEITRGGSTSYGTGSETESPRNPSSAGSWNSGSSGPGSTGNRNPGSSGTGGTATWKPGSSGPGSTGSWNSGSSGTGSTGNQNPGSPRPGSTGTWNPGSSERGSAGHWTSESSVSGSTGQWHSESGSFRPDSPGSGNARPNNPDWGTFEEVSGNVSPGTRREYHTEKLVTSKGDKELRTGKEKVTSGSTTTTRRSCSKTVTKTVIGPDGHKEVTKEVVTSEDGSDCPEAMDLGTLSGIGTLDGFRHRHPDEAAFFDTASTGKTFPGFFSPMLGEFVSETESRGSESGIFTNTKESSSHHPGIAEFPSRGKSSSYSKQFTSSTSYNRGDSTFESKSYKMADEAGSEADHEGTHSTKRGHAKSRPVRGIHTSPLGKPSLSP
T1 sequence (looked up) 2: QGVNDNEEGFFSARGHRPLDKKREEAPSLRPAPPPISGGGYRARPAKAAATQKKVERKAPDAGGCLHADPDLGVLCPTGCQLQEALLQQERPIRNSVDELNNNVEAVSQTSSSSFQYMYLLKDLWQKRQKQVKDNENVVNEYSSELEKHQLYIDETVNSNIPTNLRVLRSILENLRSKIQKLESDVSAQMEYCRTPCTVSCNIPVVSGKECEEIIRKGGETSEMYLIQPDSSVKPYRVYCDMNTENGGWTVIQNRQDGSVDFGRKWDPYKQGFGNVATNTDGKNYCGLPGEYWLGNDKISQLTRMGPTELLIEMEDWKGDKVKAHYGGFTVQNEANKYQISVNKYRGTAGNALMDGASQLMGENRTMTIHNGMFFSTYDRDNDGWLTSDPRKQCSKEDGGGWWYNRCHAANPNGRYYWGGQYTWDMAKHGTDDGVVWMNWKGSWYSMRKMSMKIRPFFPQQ
T1 sequence (looked up) 3: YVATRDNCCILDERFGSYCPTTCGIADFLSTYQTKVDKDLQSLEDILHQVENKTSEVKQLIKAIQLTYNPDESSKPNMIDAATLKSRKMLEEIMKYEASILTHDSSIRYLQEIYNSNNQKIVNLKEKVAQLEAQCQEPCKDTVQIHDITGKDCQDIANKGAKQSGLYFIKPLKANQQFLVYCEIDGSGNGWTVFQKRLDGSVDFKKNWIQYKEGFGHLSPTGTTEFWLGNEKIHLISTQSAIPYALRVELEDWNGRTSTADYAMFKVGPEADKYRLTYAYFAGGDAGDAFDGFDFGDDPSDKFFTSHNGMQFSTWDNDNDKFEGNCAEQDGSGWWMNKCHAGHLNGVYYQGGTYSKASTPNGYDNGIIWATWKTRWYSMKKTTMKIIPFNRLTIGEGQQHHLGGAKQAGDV
Assay: SPR

B1: recombinant von Willebrand factor (VWF) A2 domain polypeptide, A2_(1481-1668) (domain or fragment)
chain: GLLGVSTLGPKRNSMVLDVAFVLEGSDKIGEADFNRSKEFMEEVIQRMDVGQDSIHVTVLQYSYMVTVEYPFSEAQSKGDILQRVREIRYQGGNRTNTGLALRYLSDHSFLVSQGDREQAPNLVYMVTGNPASDEIKRLPGDIQVVPIGVGPNANVQELERIGWPNAPILIQDFETLPREAPDLVLQR
  Kd: 125 ± 30 nM
